Experimental data from the nanobody polyreactivity screen of Harvey et al. (2022).

Test: yeast display, Sf9 membrane polyspecificity reagent, FACS + sequencing; frameworks hold sequencing errors
Procedure, shortened: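 In a synthetic yeast display library (Saccharomyces cerevisiae BJ5465), nanobody expression was induced with galactose for 36–48 hours. FACS gates were set low and high (top ~1%) using anti-HA fluorescence for expression and streptavidin fluorescence for binding of the Sf9 membrane reagent. Each polyreactivity label is drawn from the gate of origin.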

| Sequence | polyreactivity (PSR sort gate) |
| --- | --- |
| QVQLVESGGGLVQAGGSLRLSCAASGFIFGLYAMGWYRQAPGKERELVAAISSGGSTYYADSVKGRFTISRDNAKNTVYLQMNSLKPEDTAVYYCAAYYVYSEYDYWGQGTQVTVSS | high polyreactivity |
| QVQLVESGGGLVQAGGSLRLSCAASGFIFGLYDMGWYRQAPGKERELVARISWGGGTYYADSVKGRFTISRDNAKNTVYLQMNSLKPEDTAVYYCNTRTRGYYYNSYYWTKYGYWGQGTQVTVSS | high polyreactivity |
| QVQLVESGGGLVQAGGSLRLSCAASGFIFGNYPMGWYRQAPGKQRELVAAITSGGNTNYADSVKGRFTISRDNAKNTVYLQMNSLKPEDTAVYYCAADRNLYWVFSPNETEDYWGQGTQVTVSS | low polyreactivity |
| QVQLVESGGGLVQAGGSLRLSCAASGFIFGPYAMGWYRPAPGKERELVASISNSGDSTYADSVKGRFTISRDTAKNTVYLQMNSLKPEDTAVYYCNADGFVGTPSVDYDYWGQGTQVTVSS | low polyreactivity |
| QVQLVESGGGLVQAGGSLRLSCAASGFIFGPYTMGWYRQAPGKERELVAAINNSGSTNYADSVKGRFTISRDNAKNTVYLQMNCLKPEDTAVYFCAAEPIIFVRYDYWGQGTQVTVSS | low polyreactivity |
| QVQLVESGGGLVQAGGSLRLSCAASGFIFGQYALGGYRQAPGKERELVAVITSSGGRTYYADSVKGRFTISRDNAKNTVYLQMNSLKPEDTAVYYCAAPGYGLQVRGRYGYWGQGTQVTVSS | high polyreactivity |
| QVQLVESGGGLVQAGGSLRLSCAASGFIFGQYAMGWYRQAPGKERELVAAISWSGGRTNYADSVKGRYTISRDNAKNTVYLQMNSLKPEDTAVYYCAARKGKYPQYTYGYWGQGTQVTVSS | high polyreactivity |
| QVQLVESGGGLVQAGGSLRLSCAASGFIFGRYAMGWDREAPGKERELVAGIRSSGGSTYYADSVKGRFTISRDNAKNTVYLQMNSLKPEDTAVYYCAARTYGQSLDYWGQGTQVTVSS | high polyreactivity |
| QVQLVESGGGLVQAGGSLRLSCAASGFIFGRYAMGWYRPAPGKERELVAAITASGGRTYYADSVKGRFTISRDNAKNTVYIQMNSLKPEDTAVYYCNTPSLWSGEDYWGQGTQVTVSS | low polyreactivity |
| QVQLVESGGGLVQAGGSLRLSCAASGFIFGRYAMGWYRQAPGKERELVAAITWSGGRTYYADSVKGRFTISRDNAKNTVFLQMNSLKPEDTAVYYCNAQGYTTYRGDYWGQGTQVTVSS | high polyreactivity |
| QVQLVESGGGLVQAGGSLRLSCAASGFIFGRYAMGWYRQAPGKERELVAAITYSSGSTYYADSVKGRFTISRDNAKNTVYLQMNSLKPEDTAVYYCNAEFWYETLYEYDYWGQGTQVTVSS | high polyreactivity |
| QVQLVESGGGLVQAGGSLRLSCAASGFIFGRYAMGWYRQAPGKERELVAVITWSGGRTYYADSVKGRFTISRDNAKNTVYLQMNSLKPEDTAVYDCAADRYPYHYGYDYWGQGTQVTVSS | high polyreactivity |
| QVQLVESGGGLVQAGGSLRLSCAASGFIFGRYAMGWYRQAPGKETELVAAISVSGGSTYYADSVKGRFTISRDNAKNTVYLQMNSLKPEDTAVYYCNVARWVSVSRSYGGNYWGQGTQVTVSS | high polyreactivity |
| QVQLVESGGGLVQAGGSLRLSCAASGFIFGSNAMGWYRQAPGKERELVAAISRSGGSTYYADSVKGRFTISRDNAKNTVYLQMNSLKPEDTAVYYCASYLYKSRYLPEYDYWGQGTQVTVSS | high polyreactivity |
| QVQLVESGGGLVQAGGSLRLSCAASGFIFGSYTMGWYRQAPGKERELVAAISSSVGRTYYADSVKGRFTISRDNAKNTVYLQMNSLKPEDTAVYYCAARRHGRVDYSQGSRESYYWGQGTQVTVSS | high polyreactivity |
| QVQLVESGGGLVQAGGSLRLSCAASGFIFGTNTMGWYRQEPGKERELVAAITSVGSTNYADSVKGRFTISRDNAKNTVYLLMNSLKPEDTAVYYCPATLYYQYGGDYWGQGTQVTVSS | low polyreactivity |
| QVQLVESGGGLVQAGGSLRLSCAASGFIFGVYAMGWYRQAPGKEREFVAAISWTGGSTSYADSVKGRFTISRDNAKNTVYLQMNSLKPEDTAVYYCARRRSYKRRFDYWGQGTQVTVSS | low polyreactivity |
| QVQLVESGGGLVQAGGSLRLSCAASGFIFGYKARGWYRQAPGKERELVAAISSSGGSTYYADSVKGRFTISRDNAKNTVYLQMKSLKPEDTAVYYCAARPVALRKYYYWGQVTQVTVSS | low polyreactivity |
| QVQLVESGGGLVQAGGSLRLSCAASGFIFGYNAMGWYRQAPGKERELVAAISSSGGSTYYADSVKGRFTISRDNAKNTVYLQMNSLKPEDTAVYYCAAESLTGYAHYDYWGQGTQVTVSS | low polyreactivity |
| QVQLVESGGGLVQAGGSLRLSCAASGFIFGYNGMGGYRQAPGKERELVAGITYSDGSTYYADSVKGRFTISRDNAKNTVYLQMNSLKPEDTAVYYCAVDVIYYWAEDYDYWGQGTQVTVSS | low polyreactivity |
| QVQLVESGGGLVQAGGSLRLSCAASGFIFGYNVKGWYRQAPGKERELVAAISSRGSSTYYADSVKGRFSISRDNAKNTVYIQMNSLKPEDTAVYYCAAYSSYNSWVSRRYGHDYWGQGTQVTVSS | high polyreactivity |
| QVQLVESGGGLVQAGGSLRLSCAASGFIFGYYAMGLYRQAPVKERELVAAITSGTGTNYADSVKGRFTISRDNAKNTVYLQMNSLKPEDTAVYYCAAYYTWLSEFGYWGQGTQVTVSS | low polyreactivity |
